Values belong to the binder of their own block, whether it stands above or below them.
Experiments:
[1] = target: T1, pGADT7Rec-peripherin, P41219; test: yeast two-hybrid β-galactosidase liquid assay; details: chain shown with the change; ONPG as substrate; parent: est. 80; read off a plot
T1 chain: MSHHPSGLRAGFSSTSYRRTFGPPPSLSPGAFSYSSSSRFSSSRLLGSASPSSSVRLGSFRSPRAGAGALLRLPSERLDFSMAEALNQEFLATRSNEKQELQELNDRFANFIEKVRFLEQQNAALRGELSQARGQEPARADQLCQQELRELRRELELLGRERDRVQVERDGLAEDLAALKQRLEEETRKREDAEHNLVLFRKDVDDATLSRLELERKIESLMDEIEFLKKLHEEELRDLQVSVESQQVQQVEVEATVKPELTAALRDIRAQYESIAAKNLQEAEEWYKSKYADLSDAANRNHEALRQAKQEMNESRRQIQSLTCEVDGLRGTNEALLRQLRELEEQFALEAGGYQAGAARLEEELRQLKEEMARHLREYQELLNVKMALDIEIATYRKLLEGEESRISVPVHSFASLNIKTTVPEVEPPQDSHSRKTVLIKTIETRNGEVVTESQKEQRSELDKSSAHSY

His-tagged RAB7A K157N = target: T2, His-tagged RAB7A K157N (UniProt P18067 1-207, K157N); test: pull-down; 20 μg purified His-tagged RAB7A bound to NiNTA resin, incubated with Neuro2A cell extracts at 4 °C for 1 h; blot for peripherin; details: one partner purified
T2 construct: RAB7A with a CMT2B disease mutation, from E. coli; The pull-down text says 'the CMT2B RAB7A mutants'; also called CMT2B RAB7A mutant K157 N

His-tagged RAB7A N161T = target: T3, His-tagged RAB7A N161T (UniProt P18067 1-207, N161T); test: as above; details: one partner purified
T3 construct: RAB7A with a CMT2B disease mutation, from E. coli; The pull-down text says 'the CMT2B RAB7A mutants'; also called CMT2B RAB7A mutant N161T

His-tagged RAB7A Q67L = target: T4, His-tagged RAB7A Q67L (UniProt P18067 1-207, Q67L); test: as above; details: one partner purified
T4 construct: RAB7A constitutively active mutant, from E. coli; also called constitutively active RAB7A Q67L mutant

His-tagged RAB7A V162M = target: T5, His-tagged RAB7A V162M (UniProt P18067 1-207, V162M); test: as above; details: one partner purified
T5 construct: RAB7A with a CMT2B disease mutation, from E. coli; The pull-down text says 'the CMT2B RAB7A mutants'; also called CMT2B RAB7A mutant V162 M

His-tagged RAB7A L129F = target: T6, His-tagged RAB7A L129F (UniProt P18067 1-207, L129F); test: as above; details: one partner purified
T6 construct: RAB7A with a CMT2B disease mutation, from E. coli; The pull-down text says 'the CMT2B RAB7A mutants'; also called CMT2B RAB7A mutant L129F

HA-tagged RAB7A V162M = target: T7, HA-tagged RAB7A V162M (UniProt P18067 1-207, V162M); test: co-IP; Neuro2A cells transfected with HA- or MYC-tagged RAB7A; RIPA lysate; anti-HA or anti-MYC resin 1 h at 4 °C; blot for endogenous peripherin; details: partners not purified
T7 construct: RAB7A with a CMT2B disease mutation; plasmid described previously; also called disease-causing mutant; source: Neuro2A or PC12 cells, transfected, in lysate

HA-tagged RAB7A N161T = target: T8, HA-tagged RAB7A N161T (UniProt P18067 1-207, N161T); test: as above; details: partners not purified
T8 construct: RAB7A with a CMT2B disease mutation; plasmid described previously; also called disease-causing mutant; source: Neuro2A or PC12 cells, transfected, in lysate

HA-tagged RAB7A K157N = target: T9, HA-tagged RAB7A K157N (UniProt P18067 1-207, K157N); test: as above; details: partners not purified
T9 construct: RAB7A with a CMT2B disease mutation; plasmid described previously; also called disease-causing mutant; source: Neuro2A or PC12 cells, transfected, in lysate

HA-tagged RAB7A L129F = target: T10, HA-tagged RAB7A L129F (UniProt P18067 1-207, L129F); test: as above; details: partners not purified
T10 construct: RAB7A with a CMT2B disease mutation; plasmid described previously; also called disease-causing mutant; source: Neuro2A or PC12 cells, transfected, in lysate

B2: pGBKT7-RAB7A wt, P18067 K157N (protein)
chain: MTSRKKVLLKVIILGDSGVGKTSLMNQYVNKKFSNQYKATIGADFLTKEVMVDDRLVTMQIWDTAGQERFQSLGVAFYRGADCCVLVFDVTAPNTFKTLDSWRDEFLIQASPRDPENFPFVVLGNKIDLENRQVATKRAQAWCYSKNNIPYFETSANEAINVEQAFQTIARNALKQETEVELYNEFPEPIKLDKNDRAKTSAESCSC
response (relative units) [1]: 98

B3: pGBKT7-RAB7A wt, P18067 N161T (protein)
chain: MTSRKKVLLKVIILGDSGVGKTSLMNQYVNKKFSNQYKATIGADFLTKEVMVDDRLVTMQIWDTAGQERFQSLGVAFYRGADCCVLVFDVTAPNTFKTLDSWRDEFLIQASPRDPENFPFVVLGNKIDLENRQVATKRAQAWCYSKNNIPYFETSAKEAITVEQAFQTIARNALKQETEVELYNEFPEPIKLDKNDRAKTSAESCSC
response (relative units) [1]: 102

B4: pGBKT7-RAB7A wt, P18067 T22N (protein)
chain: MTSRKKVLLKVIILGDSGVGKNSLMNQYVNKKFSNQYKATIGADFLTKEVMVDDRLVTMQIWDTAGQERFQSLGVAFYRGADCCVLVFDVTAPNTFKTLDSWRDEFLIQASPRDPENFPFVVLGNKIDLENRQVATKRAQAWCYSKNNIPYFETSAKEAINVEQAFQTIARNALKQETEVELYNEFPEPIKLDKNDRAKTSAESCSC
response (relative units) [1]: 115

Continued, values first:

response (relative units) [1]: 99
B1: pGBKT7-RAB7A wt, P18067 V162M (protein)
chain: MTSRKKVLLKVIILGDSGVGKTSLMNQYVNKKFSNQYKATIGADFLTKEVMVDDRLVTMQIWDTAGQERFQSLGVAFYRGADCCVLVFDVTAPNTFKTLDSWRDEFLIQASPRDPENFPFVVLGNKIDLENRQVATKRAQAWCYSKNNIPYFETSAKEAINMEQAFQTIARNALKQETEVELYNEFPEPIKLDKNDRAKTSAESCSC

pulled-down peripherin relative to RAB7A wt (His-tagged RAB7A K157N): 2 fold of RAB7A wt
pulled-down peripherin relative to RAB7A wt (His-tagged RAB7A N161T): 2 fold of RAB7A wt
pulled-down peripherin relative to RAB7A wt (His-tagged RAB7A Q67L): 2 fold of RAB7A wt
pulled-down peripherin relative to RAB7A wt (His-tagged RAB7A V162M): 2 fold of RAB7A wt
pulled-down peripherin relative to RAB7A wt (His-tagged RAB7A L129F): 2 fold of RAB7A wt
co-immunoprecipitated peripherin relative to RAB7A wt (HA-tagged RAB7A V162M): ~60 % more than RAB7A wt
co-immunoprecipitated peripherin relative to RAB7A wt (HA-tagged RAB7A N161T): ~60 % more than RAB7A wt
co-immunoprecipitated peripherin relative to RAB7A wt (HA-tagged RAB7A K157N): ~60 % more than RAB7A wt
co-immunoprecipitated peripherin relative to RAB7A wt (HA-tagged RAB7A L129F): ~60 % more than RAB7A wt
B5: peripherin (endogenous, Neuro2A cells) (natural protein, mouse (endogenous in Neuro2A), UniProt P15331 1-475, looked up)
chain: MPSSASMSHHHSSGLRSSISSTSYRRTFGPPPSLSPGAFSYSSSSRFSSSRLLGSGSPSSSARLGSFRAPRAGALRLPSERLDFSMAEALNQEFLATRSNEKQELQELNDRFANFIEKVRFLEQQNAALRGELSQARGQEPARADQLCQQELRELRRELELLGRERDRVQVERDGLAEDLAALKQRLEEETRKREDAEHNLVLFRKDVDDATLSRLELERKIESLMDEIEFLKKLHEEELRDLQVSVESQQVQQVEVEATVKPELTAALRDIRAQYENIAAKNLQEAEEWYKSKYADLSDAANRNHEALRQAKQEMNESRRQIQSLTCEVDGLRGTNEALLRQLRELEEQFALEAGGYQAGAARLEEELRQLKEEMARHLREYQELLNVKMALDIEIATYRKLLEGEESRISVPVHSFASLSLKTTVPEMEPLQDSHSKKMVLIRTIETRDGEKVVTESQKEQHSDLDKSSIHSY
notes: peripherin endogenous in mouse Neuro2A neuroblastoma cells, detected with anti-peripherin antibodies; main form of 58 kDa (Per-58); also called Per-58; source: endogenous, Neuro2A lysate

Source: article PMC3549248, “Charcot–Marie–Tooth type 2B disease-causing RAB7A mutant proteins show altered interaction with the neuronal intermediate filament peripherin” (Acta Neuropathologica, 2012)
